The record followed here is US20250154231A1.

Common to all, as to assay: cell-based or functional assay
Experiment [1] has as its target SARS-CoV-2 spike (S) protein, synthetic variant "BA.4+all".
The target in experiment [2] is SARS-CoV-2 spike (S) protein, Omicron BA.2 + N460K (SARS-CoV-2) (UniProt P0DTC2).
Experiment [3] concerns the target SARS-CoV-2 spike (S) protein, Omicron BA.2 + D339H (SARS-CoV-2) (UniProt P0DTC2).
In experiment [4] the target is SARS-CoV-2 spike (S) protein, Omicron BA.2 + G446S (SARS-CoV-2) (UniProt P0DTC2).
Experiment [5] concerns the target SARS-CoV-2 spike (S) protein, Omicron BA.2 + N460K (SARS-CoV-2) (UniProt P0DTC2). This is another data set of the same source.
Experiment [6] deals with SARS-CoV-2 Omicron BA.1 spike (S) protein, pseudovirus construct (SARS-CoV-2) (UniProt P0DTC2).
The target of experiment [7] is SARS-CoV-2 Omicron BA.1.1 spike (S) protein, pseudovirus construct (SARS-CoV-2) (UniProt P0DTC2).
The target in experiment [8] is SARS-CoV-2 Omicron BA.2 spike (S) protein, pseudovirus construct (SARS-CoV-2) (UniProt P0DTC2).
Experiment [9] addresses SARS-CoV-2 Omicron BA.3 spike (S) protein, pseudovirus construct (SARS-CoV-2) (UniProt P0DTC2).
Experiment [10] has as its target SARS-CoV-2 Victoria spike (S) protein (SARS-CoV-2) (UniProt P0DTC2).

Where two headings read alike, the source gives them in different places.

Omi-42 (antibody), sequence (VH): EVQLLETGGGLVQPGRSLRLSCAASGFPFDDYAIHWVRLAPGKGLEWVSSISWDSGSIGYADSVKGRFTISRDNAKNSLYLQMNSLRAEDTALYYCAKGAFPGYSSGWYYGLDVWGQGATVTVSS
Omi-42 (antibody), sequence (VL): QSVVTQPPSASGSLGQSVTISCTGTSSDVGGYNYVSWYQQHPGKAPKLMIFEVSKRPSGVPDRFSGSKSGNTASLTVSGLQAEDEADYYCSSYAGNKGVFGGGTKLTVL
Omi-32 (antibody), sequence (VH): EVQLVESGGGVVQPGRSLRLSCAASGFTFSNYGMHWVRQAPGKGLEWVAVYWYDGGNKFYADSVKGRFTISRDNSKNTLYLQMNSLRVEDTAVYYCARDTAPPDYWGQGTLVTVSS
Omi-32 (antibody), sequence (VL): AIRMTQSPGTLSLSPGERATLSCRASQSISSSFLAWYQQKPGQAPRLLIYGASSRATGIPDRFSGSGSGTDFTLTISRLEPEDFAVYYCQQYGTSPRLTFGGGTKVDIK
Omi-12 (antibody), sequence (VH): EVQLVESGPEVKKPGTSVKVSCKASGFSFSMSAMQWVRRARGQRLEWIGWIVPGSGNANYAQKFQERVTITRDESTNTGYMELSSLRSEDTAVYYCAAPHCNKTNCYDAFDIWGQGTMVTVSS
Omi-12 (antibody), sequence (VL): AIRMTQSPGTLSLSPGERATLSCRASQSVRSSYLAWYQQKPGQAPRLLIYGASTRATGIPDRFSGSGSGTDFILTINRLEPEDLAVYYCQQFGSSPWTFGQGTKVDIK
Omi-18 (antibody), sequence (VH): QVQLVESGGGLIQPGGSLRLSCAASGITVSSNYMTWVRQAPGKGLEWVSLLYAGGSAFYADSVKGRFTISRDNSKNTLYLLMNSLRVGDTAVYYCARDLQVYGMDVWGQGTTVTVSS
Omi-18 (antibody), sequence (VL): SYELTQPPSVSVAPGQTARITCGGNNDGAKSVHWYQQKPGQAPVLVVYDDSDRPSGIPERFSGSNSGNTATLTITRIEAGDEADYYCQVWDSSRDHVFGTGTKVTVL
Omi-29 (antibody), sequence (VH): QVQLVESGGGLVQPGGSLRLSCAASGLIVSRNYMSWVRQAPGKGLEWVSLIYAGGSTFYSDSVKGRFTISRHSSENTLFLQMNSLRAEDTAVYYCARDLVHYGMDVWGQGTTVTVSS
Omi-29 (antibody), sequence (VL): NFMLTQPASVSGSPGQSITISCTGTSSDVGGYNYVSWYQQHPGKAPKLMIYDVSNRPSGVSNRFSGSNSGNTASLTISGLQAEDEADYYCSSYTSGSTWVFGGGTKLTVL
AZD8895 (antibody), sequence (VH): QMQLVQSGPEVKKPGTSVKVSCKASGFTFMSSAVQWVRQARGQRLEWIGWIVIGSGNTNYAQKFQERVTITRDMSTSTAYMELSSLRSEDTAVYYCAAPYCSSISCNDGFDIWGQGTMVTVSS
AZD8895 (antibody), sequence (VL): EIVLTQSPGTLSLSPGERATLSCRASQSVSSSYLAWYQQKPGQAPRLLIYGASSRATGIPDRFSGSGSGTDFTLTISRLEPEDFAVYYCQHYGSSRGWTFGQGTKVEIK

In the case of LY-CoV1404 (bebtelovimab) (antibody), the IC50, pseudoviral neutralization in experiment [1] is more than 10 µg/mL.
Omi-42 (antibody): the pseudovirus neutralisation IC50 turned out to be 0.007 µg/mL in experiment [2], 0.011 µg/mL in [3], 0.016 µg/mL in experiment [4] and 0.007 µg/mL in [5]. In experiment [1], this substance came in with an IC50, pseudoviral neutralization of 0.008 µg/mL.
In experiment [1], ADG20 (antibody) displayed an IC50, pseudoviral neutralization of more than 10 µg/mL.
Take Omi-32 (antibody): the pseudovirus neutralisation IC50 in [2] was determined as 2.34 µg/mL; in [3], 0.683 µg/mL; in experiment [4], 0.33 µg/mL; in experiment [5], 2.34 µg/mL. Also, the IC50, pseudoviral neutralization in experiment [1] is more than 10 µg/mL.
Turning to Omi-03 (antibody), the pseudovirus neutralisation IC50 is 0.401 µg/mL in experiment [2], 0.006 µg/mL in experiment [3], 0.005 µg/mL in [4] and 0.401 µg/mL in experiment [5]. In experiment [1], this substance gave an IC50, pseudoviral neutralization of 0.432 µg/mL.
The substance REGN10933 (antibody) came in with an IC50, pseudoviral neutralization in experiment [1] of more than 10 µg/mL.
As for Omi-12 (antibody), the pseudovirus neutralisation IC50 in [2] was determined as 0.011 µg/mL; in [3] it was 0.003 µg/mL; in experiment [4], 0.003 µg/mL; in [5] it was 0.011 µg/mL. In [1], the IC50, pseudoviral neutralization was more than 10 µg/mL.
Ly-CoV16 (antibody) yielded an IC50, pseudoviral neutralization in experiment [1] of more than 10 µg/mL.
In turn, Ly-CoV555 (antibody) yielded an IC50, pseudoviral neutralization in [1] of more than 10 µg/mL.
Take S309 (antibody): in [1], the IC50, pseudoviral neutralization was determined as 0.584 µg/mL.
As to Omi-18 (antibody), the pseudovirus neutralisation IC50 is 0.014 µg/mL in experiment [2], 0.003 µg/mL in [3], 0.003 µg/mL in [4] and 0.014 µg/mL in experiment [5]. In experiment [1], this substance had an IC50, pseudoviral neutralization of 3.61 µg/mL.
Turning to Known Antibody E (AZD7442), the IC50 (ug/ml), pseudovirus in [6] came out at 0.232 µg/mL; in [7], 0.806 µg/mL; in experiment [8], 0.008 µg/mL; in [9], 0.065 µg/mL; in experiment [10] it was 0.001 µg/mL.
In experiment [1], AZD8895 (antibody) had an IC50, pseudoviral neutralization of more than 10 µg/mL.
On the same count and under the same terms, the value for REGN10987 (antibody) was more than 10 µg/mL.
On to Omi-29 (antibody), for which the pseudovirus neutralisation IC50 in [2] is more than 10 µg/mL; in experiment [3], 0.018 µg/mL; in experiment [4], 0.024 µg/mL; in experiment [5] it was more than 10 µg/mL. The substance also yielded an IC50, pseudoviral neutralization in experiment [1] of more than 10 µg/mL.
Consider AZD1061 (antibody), for which, in experiment [1], the IC50, pseudoviral neutralization was more than 10 µg/mL.
“AZD7442 (a combination of AZD8895 and AZD1061)” gave an IC50, pseudoviral neutralization in [1] of more than 10 µg/mL.
